Laboratory results from patent US20050186604A1.

Target: Myc transcription factor (UniProt P01106)
Test: cell-based or functional assay

Chain of UniProt P01106 (P01106 16-454 limits assumed): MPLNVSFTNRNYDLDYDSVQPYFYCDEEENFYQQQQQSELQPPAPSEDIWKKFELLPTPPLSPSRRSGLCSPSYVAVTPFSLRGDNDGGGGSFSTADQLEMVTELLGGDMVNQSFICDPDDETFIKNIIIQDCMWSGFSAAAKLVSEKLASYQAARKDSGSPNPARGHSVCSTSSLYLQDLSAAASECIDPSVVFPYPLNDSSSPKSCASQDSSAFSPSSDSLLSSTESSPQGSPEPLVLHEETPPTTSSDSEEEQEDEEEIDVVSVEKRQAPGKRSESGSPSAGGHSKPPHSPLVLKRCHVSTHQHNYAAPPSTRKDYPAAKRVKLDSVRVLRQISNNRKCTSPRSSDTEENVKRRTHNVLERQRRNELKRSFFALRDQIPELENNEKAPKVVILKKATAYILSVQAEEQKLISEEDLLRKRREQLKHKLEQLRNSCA
Chain of HTLV-1 p30^II (HA) (P0C214 whole entry): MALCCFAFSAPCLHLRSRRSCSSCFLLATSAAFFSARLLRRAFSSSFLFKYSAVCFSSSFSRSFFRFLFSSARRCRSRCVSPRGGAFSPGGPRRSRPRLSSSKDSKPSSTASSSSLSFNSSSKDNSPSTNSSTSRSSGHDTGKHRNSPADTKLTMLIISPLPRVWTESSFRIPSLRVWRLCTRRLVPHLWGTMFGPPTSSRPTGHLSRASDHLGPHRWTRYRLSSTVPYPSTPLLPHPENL

HTLV-1 p30^II (HA) gave a trans-activation from the synthetic M4-tk-luc promoter (luciferase reporter, four tandem E-boxes) of 13 fold and a trans-activation from the synthetic M4-tk-luc promoter (luciferase reporter, four tandem E-boxes), higher p30^II concentrations of 5 to 7 fold.
